Legend:
[1] = molecular target: biotinylated human SIRPα allele 1 domain 1 (a1d1) (human) (UniProt P78324); test: SPR, Biacore T100, biotinylated SIRPα on SA chip, 25 C, 1:1 Langmuir model
[2] = molecular target: biotinylated human SIRPα allele 2 domain 1 (a2d1) (human) (UniProt P78324); test: as above
Sequence of biotinylated human SIRPα allele 2 domain 1 (a2d1) (human) (P78324 other isoform, or with tags, fused parts or gaps): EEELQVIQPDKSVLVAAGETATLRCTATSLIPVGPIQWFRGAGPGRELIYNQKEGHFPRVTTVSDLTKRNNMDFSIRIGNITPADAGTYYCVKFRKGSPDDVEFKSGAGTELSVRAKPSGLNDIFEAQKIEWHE

Sequence of biotinylated human SIRPα allele 1 domain 1 (a1d1) (human) (P78324 other isoform, or with tags, fused parts or gaps): as above

Kd [1]: 285 nM
Kd [2]: 476 nM
Substance: WT CD47 (human CD47 IgSF domain, C15G, C-terminal 8x histidine tag) (from UniProt Q08722 19-135) (ligand)

Reference: patent US20180127480A1
